Data on one substance can be found in PMC6350010.

This assay deals with Wild-type Aβ (1–40) peptide. In words: single-molecule fluorescence burst analysis.

In the case of Atto655-Aβ40 (peptide), the mean of the oligomer size distribution, μ1 (relative photon number N phot,rel) was 7.4 N¯phot,mon.
